Results taken from paper PMC2588524 (Nucleic Acids Research, 2008).

How the values were obtained:
[1] = molecular target: T1, C-terminal domain of mouse Dnmt3a (residues 608-908) (mouse, UniProt O88508 608-908); assay: co-purification
[2] = molecular target: T1, C-terminal domain of mouse Dnmt3a …; assay: AUC

T1 sequence (O88508 608-908): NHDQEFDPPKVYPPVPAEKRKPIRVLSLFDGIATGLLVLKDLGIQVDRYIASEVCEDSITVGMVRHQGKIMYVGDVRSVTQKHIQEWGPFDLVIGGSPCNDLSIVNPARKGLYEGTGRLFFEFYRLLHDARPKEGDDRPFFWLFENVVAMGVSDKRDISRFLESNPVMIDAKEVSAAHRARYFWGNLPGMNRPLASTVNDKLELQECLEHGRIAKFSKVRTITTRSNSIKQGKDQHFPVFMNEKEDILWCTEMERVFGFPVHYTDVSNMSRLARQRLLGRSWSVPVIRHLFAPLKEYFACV

B1: C-terminal domain of mouse Dnmt3L (residues 208-421) (domain or fragment, UniProt Q9CWR8 208-421, looked up)
chain: GPMEIYKTVSAWKRQPVRVLSLFRNIDKVLKSLGFLESGSGSGGGTLKYVEDVTNVVRRDVEKWGPFDLVYGSTQPLGSSCDRCPGWYMFQFHRILQYALPRQESQRPFFWIFMDNLLLTEDDQETTTRFLQTEAVTLQDVRGRDYQNAMRVWSNIPGLKSKHAPLTPKEEEYLQAQVRSRSKLDAPKVDLLVKNCLLPLREYFKYFSQNSLPL
How did the “stoichiometry N” value [1] turn out when B1 was run?
Its value is 1.

What about the “stoichiometry N” value [2] of the same binder?
The value was 1 2:2 (Dnmt3a-C:Dnmt3L-C).
